Experiments:
apigenin = test: Conversion of apigenin to vitexin by intracellularly expressed enzyme, flask culture; format: cell-based, E. coli
Description: (§1) As such, 70 μM luteolin, 0.5 mM naringenin, or 185.2 μM apigenin was co-administered, followed by culture for an additional 36 hours. The amounts of substrate and product were analyzed by LC-MS. Flask culture was carried out in a 250 mL baffled flask containing 50 mL of R/2 medium (supplemented with 3 g/L yeast extract and 20 g/L glucose), and culture was performed at 30° C. and 200 rpm.

[1] = KM and Vmax of purified GtCGT enzymes, FK converted into dcII, UDP-Glo Glycosyltransferase Assay; format: biochemical, Gentiana triflora; conditions: substrate FK
Description: The purified enzyme was buffer-exchanged with an enzyme storage solution (50 mM HEPES, 20% glycerol, pH 7.5) using Amicon Ultra-15 Centrifugal Filters (regenerated cellulose, 50,000 NMWL; Merck), and in order to calculate KM and Vmax values, FK was converted into dcII using the purified enzyme. Here, a UDP-Glo Glycosyltransferase Assay Kit (Promega) was used to determine the extent of reaction. Since this kit enables measurement of free UDP generated as a reaction byproduct by luminescence, 200 μL of an enzyme reaction solution containing 0.1 μM enzyme and various concentrations of FK (50 mM HEPES, 0.1 mM UDP-glucose, 5 mM MgCl2, pH 7.5) was allowed to react at 25° C. for 1 hour, 25 μL thereof was taken out, and the amount of emitted light was measured using the kit.

FK = test: dcII production from FK by C-glycosyltransferase candidates and GtCGT mutants in FK-producing E. coli, flask culture; format: cell-based; conditions: flask culture
Description: Flask culture was carried out under the following conditions. Colonies were seeded into 10 mL of LB medium supplemented with appropriate concentrations of antibiotics, followed by culture overnight at 37° C. The culture fluid thus prepared was passaged into a 250 mL baffled flask containing 50 mL of R/2 medium supplemented with 3 g/L yeast extract and 20 g/L glucose (with 0.45 g/L ascorbic acid if necessary), followed by culture at 30° C. and 200 rpm. The composition of R/2 medium (pH 6.8) was as follows (per liter): 2 g of (NH4)2HPO4, 6.75 g of KH2PO4, 0.85 g of citric acid, 0.7 g of MgSO4·7H2O, and 5 ml of trace metal solution (TMS) [10 g of FeSO4·7H2O, 2.25 g of ZnSO4·7H2O, 1 g of CuSO4·5H2O, 0.5 g of MnSO4·5H2O, 0.23 g of Na2B4O7·10H2O, 2 g of CaCl2·2H2O, and 0.1 g of (NH4)6Mo7O24 per liter of 5 M HCl]. When OD600 of the culture fluid reached 0.6-0.8, 1 mM isopropyl β-D-1-thiogalactopyranoside (IPTG) was added to induce exogenous gene expression, followed by culture for 48 hours.
After culture, production analysis was performed under the following conditions. After flask culture, 50 mL of the culture fluid was centrifuged at 4,000 g for 30 minutes, and then the supernatant was desalted and concentrated. Here, Oasis HLB cartridges (Water) were used. The supernatant was concentrated 1-fold for FK, 30-fold for KA, 45-fold for dell, and 200-fold for carminic acid. The concentrated sample was re-dissolved in an appropriate volume of DMSO and impurities were then removed therefrom using a 0.22 μm PTFE filter. The prepared sample was analyzed by MS (LC/MSD VL; Agilent) coupled with HPLC (1100 series; Agilent). An Eclipse XDB-C18 column was used, 0.1% formic acid was used as buffer A, and methanol was used as buffer B. Analysis was performed in an ESI negative mode. For more accurate analysis of carminic acid, LC-MS/MS was performed using an HPLC Triple Quadrupole Mass Spectrometer (LCMS-8050, Shimadzu) (MRM mode).
Flask culture started by seeding colonies from LB agar plates into test tubes containing 10 mL of LB. As such, an appropriate concentration of antibiotics was added, followed by culture overnight at 37° C. at 220 rpm. 1 mL of the seed culture thus prepared was inoculated into a 250 mL baffled flask containing 50 mL of R/2 medium (supplemented with 3 g/L yeast extract and 20 g/L glucose), followed by culture at 30° C. and 200 rpm. The composition of R/2 medium was as follows (pH 6.8, per 1 L): 2 g of (NH4)2HPO4, 6.75 g of KH2PO4, 0.85 g of citric acid, 0.8 g of MgSO4·7H2O, and 5 ml of trace metal solution (TMS). The composition of TMS was as follows (based on 0.1 M HCl, per 1 L): 10 g of FeSO4·7H2O, 2.25 g of ZnSO4·7H2O, 1 g of CuSO4·5H2O, 0.58 g of MnSO4·5H2O, 0.02 g of Na2B4O7·10H2O, 2 g of CaCl2·2H2O, and 0.1 g of (NH4)6Mo7O24·4H2O. When OD600 of the culture fluid reached 0.6-0.8, 0.5 mM IPTG was added to induce exogenous enzyme expression, followed by culture for 48 hours. In all experiments for producing flavokermesic acid, kermesic acid, dcII, and carminic acid, 0.45 g/L of ascorbic acid was further added.
The production of carminic acid (CA) from FK was performed by two biosynthesis pathways, both of which require monooxygenase and C-glycosyltransferase. FK may be oxidized into KA or may be C-glycosylated into dcII. […] In order for the enzyme to have activity, however, it must be glycosylated, and since it also has a transmembrane helix and a signal peptide, successful expression in cells such as E. coli is considered difficult.
For the enzymes selected above, pCDF-DcCGT, pCDF-MiCGT, pCDF-SfCGT, pCDF-EnCGT, pCDF-OsCGT, pCDF-FeCGT, pCDF-GmCGT, pCDF-AvCGT, pCDF-AvCGT, pCDF-ZmCGT, and pCDF-GtCGT were constructed, and all genes except for the iroB gene amplified from genomic DNA of E. coli Nissle using the iroB_gib_F primer and the iroB_gib_R primer were artificially synthesized and inserted into the NdeI site of the pCDFDuet-1 plasmid using Gibson assembly. […]

naringenin = test: Conversion of naringenin to naringenin-6-C-glucoside by intracellularly expressed enzyme, flask culture; format: cell-based, E. coli
Description: as §1

luteolin = test: Conversion of luteolin to isoorientin by intracellularly expressed enzyme, flask culture; format: cell-based, E. coli
Description: as §1

aloesone = test: Aloesin production from aloesone by GtCGT and variants in E. coli BL21(DE3), flask culture; format: cell-based
Description: Also, in LC-MS/MS for aloesin analysis, MS (Agilent 6550 iFunnel Q-TOF LC/MS System) coupled with ultra HPLC (UHPLC; 1290 Infinity II LC System; Agilent) was used. Here, an Eclipse-plus C18 column was used, and 0.1% formic acid was used as buffer A, and acetonitrile to which 0.1% formic acid was added was used as buffer B.
Thereafter, in order to test the production of aloesin, the pCDF-GtCGT or pCDF-GtCGT^V93Q/Y193F plasmid was transformed into the BL21(DE3) strain containing pWAS-anti-pabA, pRSF-RpALS, and pBBR1-zwf plasmids, followed by flask culture.
Similarly to the test for increased production of aloesone, RpALS was additionally introduced to increase aloesin production. To this end, pCDF-RpALS-GtCGT^V93Q/Y193F was constructed instead of introducing pCDF-GtCGT^V93Q/Y193F. Specifically, RpALS was amplified from pCDF-RpALS using pCDFDuet F and pCDFDuet R primers, and inserted into the NcoI and BamHI sites of the pCA plasmid through Gibson assembly. Thereafter, four plasmids, namely pRSF-RpALS, pCDF-RpALS-GtCGT^V93Q/Y193F, pWAS-anti-pabA, and pBBR1-zwf, were transformed into E. coli BL21(DE3), which was named an ALS strain.
(§2) Mutagenesis for a specific sequence was performed in the same manner as in Example 2. Here, plasmids containing gene mutants were constructed using pCDF-RpALS-GtCGT^V93Q/Y193F as a template and using primer pairs shown in Table 11 below. The plasmids thus constructed were transformed into the BL21 (DE3) strain along with three plasmids, namely pWAS-anti-pabA, pRSF-RpALS, and pBBR1-zwf, followed by flask culture under the same conditions as in Example 3 using the strains thus constructed. The concentration of aloesin produced was measured in an MRM mode of the HPLC Triple Quadrupole Mass Spectrometer (LCMS-8050, Shimadzu) of the KAIST Biocore Center.
as §2, with “13” for “11”

B1: GtCGT^V93Q/Y193F: GtCGT variant with substitutions V93Q and Y193F (SEQ ID NO: 61) (protein)
chain: MGSLTNNDNLHIFLVCFIGQGVVNPMLRLGKAFASKGLLVTLSAPEIVGTEIRKANNLNDDQPIKVGSGMIRFEFFDDGWESVNGSKPFDVWQYINHLDQTGRQKLPIMLKKHEETGTPVSCLILNPLVPWVADVADSLQIPCATLWVQSCASFSAYYHYHHGLVPFPTESEPEIDVQLPGMPLLKYDEVPDFLHPRTPYPFFGTNILGQFKNLSKNFCILMDTFYELEHEIIDNMCKLCPIKPIGPLFKIPKDPSSNGITGNFMKVDDCKEWLDSRPTSTVVYVSVGSVVYLKQEQVTEMAYGILNSEVSFLWVLRPPSKRIGTEPHVLPEEFWEKAGDRGKVVQWSPQEQVLAHPATVGFLTHCGWNSTQEAISSGVPVITFPQFGDQVTNAKFLVEEFKVGVRLGRGELENRIITRDEVERALREITSGPKAEEVKENALKWKKKAEETVAKGGYSERNLVGFIEEVARKTGTK
modifications: GtCGT V93Q/Y193F (GtUF6CGT1V93Q/Y193F) variant
conversion rate (apigenin; apigenin to vitexin): 8.1% | vitexin produced (apigenin; from 185.2 μM apigenin, 36 hours, with pBBR1-galU-pgm-ndk): 15.0 µM | Vmax/KM value increase compared to GtCGT [1]: 46.8% | dcII production increase compared to wild-type GtCGT (FK; FK strain): 5.3 fold | dcII production (FK; FK-producing E. coli strain): 0.74 mg CA eq/L | naringenin-6-C-glucoside produced (naringenin; from 0.5 mM naringenin, 36 hours, with pBBR1-galU-pgm-ndk): 51.6 µM | conversion rate (naringenin; naringenin to naringenin-6-C-glucoside): 10.3% | isoorientin produced (luteolin; from 70 μM luteolin, 36 hours, with pBBR1-galU-pgm-ndk): 27.9 µM | conversion rate (luteolin; luteolin to isoorientin): 27.9% | aloesin production (aloesone; BL21(DE3) with pWAS-anti-pabA, pRSF-RpALS, pBBR1-zwf and pCDF-GtCGT variant plasmid): 0.06 µg/L | aloesin amount compared with strain containing GtCGT (aloesone; flask culture): greater amount of aloesin than the strain containing GtCGT
